Data reported in publication PMC10950212, “Structure and antigenicity of the divergent human astrovirus VA1 capsid spike” (PLOS Pathogens, 2024).

Target: the molecule itself
Experiment: SEC; Superdex 200 increase 10/300; retention volume compared with Bio-Rad gel filtration standards; 20 mM Tris-HCl pH 8.0, 150 mM NaCl

B1: gastrointestinal HAstV-VA1 capsid spike (HAstV-VA1^gastro spike), residues 408-684 (domain or fragment)
chain: PIPPTGVPVGDFYVCGRMTTLHMGGQSGIQATTLVNGMIYRTDHPEPSTSPVSNWEFTVLENNTIVGAGMGCVWFQKSEALVWTLDGQKLSGWNTLDGVGTTQLTVAWRQHNRTIYGWANVVAWNSEEWHTNAEQPHQPILRLTYWLVKINVLSEPEDFDVVQKSPLAYLEDYTTAQSKSAIQKLNFQTFQKPEGGGTLRAQYSTTPRQGDFAVIWQIGRHNFDMSTGKGTPVESLSDYVMPQQKDAHIGMWYRALTSVGPRSDVLTLHFHLPTVEK
notes: Capsid precursor protein (VP86, ORF2) of human astrovirus VA1, gastrointestinal strain, NCBI YP_003090288.1, spike structural domain residues 408-684; C-terminal thrombin site and 10-histidine tag; tag removed with thrombin before SEC and crystallisation; Homodimer; also called VA1 Spike^Gastro; HAstV-VA1 spike; source: E. coli T7 Express, purified (TALON, thrombin digestion, SEC on Superdex 200 …)
- stoichiometry N: 2
